Data taken from paper PMC9852558 (The Journal of Biological Chemistry, 2022).
One block for each binder: values may come before it.

Legend:
Assay in all cases: SPR
FGFR1β (IIIc)/Fc = FGFR1β (IIIc)/Fc (Homo sapiens, UniProt P11362, strain, biotinylated)
FGFR2 (IIIb) = FGFR2 (IIIb) (Homo sapiens (assumed), UniProt P21802-3)
FGFR4 = FGFR4 (Homo sapiens (assumed), UniProt P22455)
FGFR1 (IIIb) = FGFR1 (IIIb) (Homo sapiens, FGFR1 splice form IIIb, UniProt P11362, strain)
FGFR3 (IIIb) = FGFR3 (IIIb) (Homo sapiens (assumed), UniProt P22607-2)

FGFR4, sequence (P22455 22-802): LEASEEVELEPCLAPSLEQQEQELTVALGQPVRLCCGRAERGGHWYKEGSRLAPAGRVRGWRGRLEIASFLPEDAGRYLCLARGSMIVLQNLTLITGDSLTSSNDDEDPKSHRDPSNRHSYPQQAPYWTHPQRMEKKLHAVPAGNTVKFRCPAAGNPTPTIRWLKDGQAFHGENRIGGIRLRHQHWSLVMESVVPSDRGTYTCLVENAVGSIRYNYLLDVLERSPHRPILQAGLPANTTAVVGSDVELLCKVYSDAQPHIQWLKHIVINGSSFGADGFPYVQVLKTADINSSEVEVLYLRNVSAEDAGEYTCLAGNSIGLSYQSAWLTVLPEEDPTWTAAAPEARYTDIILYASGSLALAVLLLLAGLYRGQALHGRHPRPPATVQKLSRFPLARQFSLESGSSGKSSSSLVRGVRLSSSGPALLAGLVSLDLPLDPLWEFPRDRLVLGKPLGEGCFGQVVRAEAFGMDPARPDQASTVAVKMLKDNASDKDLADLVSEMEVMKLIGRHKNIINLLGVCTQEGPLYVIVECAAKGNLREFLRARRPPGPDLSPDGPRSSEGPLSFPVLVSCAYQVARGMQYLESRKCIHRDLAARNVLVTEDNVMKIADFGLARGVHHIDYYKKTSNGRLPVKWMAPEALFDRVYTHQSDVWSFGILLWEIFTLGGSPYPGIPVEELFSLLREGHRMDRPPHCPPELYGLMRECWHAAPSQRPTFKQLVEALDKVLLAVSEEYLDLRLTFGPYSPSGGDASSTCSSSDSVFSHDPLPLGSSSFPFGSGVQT
FGFR1 (IIIb), sequence (P11362 whole entry, looked up, change not shown, canonical isoform): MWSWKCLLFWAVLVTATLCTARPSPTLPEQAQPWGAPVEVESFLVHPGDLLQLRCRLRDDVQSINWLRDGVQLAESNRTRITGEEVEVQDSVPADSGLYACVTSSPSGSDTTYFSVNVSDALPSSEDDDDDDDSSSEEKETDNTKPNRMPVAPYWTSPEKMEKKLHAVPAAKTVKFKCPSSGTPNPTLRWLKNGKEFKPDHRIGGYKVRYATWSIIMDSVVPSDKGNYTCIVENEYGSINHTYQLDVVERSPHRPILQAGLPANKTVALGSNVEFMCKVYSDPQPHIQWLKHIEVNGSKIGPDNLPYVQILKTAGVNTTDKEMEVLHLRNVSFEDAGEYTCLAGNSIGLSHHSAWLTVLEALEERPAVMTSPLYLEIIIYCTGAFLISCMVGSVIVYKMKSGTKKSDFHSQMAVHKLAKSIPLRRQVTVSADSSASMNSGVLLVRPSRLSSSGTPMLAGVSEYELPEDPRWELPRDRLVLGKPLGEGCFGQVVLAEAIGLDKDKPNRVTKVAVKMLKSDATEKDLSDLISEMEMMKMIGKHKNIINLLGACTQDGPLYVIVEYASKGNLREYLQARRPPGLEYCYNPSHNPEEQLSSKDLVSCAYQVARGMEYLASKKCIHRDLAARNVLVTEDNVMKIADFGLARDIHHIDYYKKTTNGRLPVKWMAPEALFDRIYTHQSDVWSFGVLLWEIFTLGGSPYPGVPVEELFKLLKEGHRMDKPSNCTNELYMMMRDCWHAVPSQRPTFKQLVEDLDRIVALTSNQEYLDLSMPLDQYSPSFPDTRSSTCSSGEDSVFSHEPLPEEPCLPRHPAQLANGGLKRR

Kd (FGFR1β (IIIc)/Fc): 1.02 nM | koff (FGFR1β (IIIc)/Fc): 0.00114 s⁻¹ | kon (FGFR1β (IIIc)/Fc): 1.11e+06 M⁻¹ s⁻¹
B1: clone VM35 (VHH)
VHH: QVQLVESGGGLVQAGGSLRLSCAVPGSIFRFNTMGWYRQPPGKQRELVAQMSRGGITKYGDSVKGRFTITRDNAKNTVHLQMNSLKPEDTAVYYCAGSYYSGSYYYPSPQGFSVWGQGTQVTVSP

Kd (FGFR1β (IIIc)/Fc): 1.74 nM | koff (FGFR1β (IIIc)/Fc): 0.00142 s⁻¹ | kon (FGFR1β (IIIc)/Fc): 819000 M⁻¹ s⁻¹ | binding result (FGFR2 (IIIb)): no binding | Kd (FGFR4): 22.2 nM | koff (FGFR4): 0.0527 s⁻¹ | kon (FGFR4): 2.37e+06 M⁻¹ s⁻¹ | Kd (FGFR1 (IIIb)): 92.8 nM | koff (FGFR1 (IIIb)): 0.0254 s⁻¹ | kon (FGFR1 (IIIb)): 274000 M⁻¹ s⁻¹ | binding result (FGFR3 (IIIb)): no binding
B2: clone VM34 (VHH)
VHH: QLQLVESGGGSVQAGGSLRLSCAASRSLSRFNVWTWYRQAPVKQRELVASITKSGDTNYAESVKGRFIISRDDDKNTVYLQMNNLKSEDTGIYYCAGSYYSGSYLYPSPGGFSVWGQGTQVTVSS
